In PMC5095800, “A standardized production pipeline for high profile targets from Mycobacterium tuberculosis” (Proteomics. Clinical Applications, 2016):

Molecular target: the molecule itself
Assay: SEC

B1: Ferritin BfrB (natural protein)
chain: MTEYEGPKTKFHALMQEQIHNEFTAAQQYVAIAVYFDSEDLPQLAKHFYSQAVEERNHAMMLVQHLLDRDLRVEIPGVDTVRNQFDRPREALALALDQERTVTDQVGRLTAVARDEGDFLGEQFMQWFLQEQIEEVALMATLVRVADRAGANLFELENFVAREVDVAPAASGAPHAAGGRL
notes: also called Rv3841; copies: 24
- stoichiometry N: 24
